{"source": "paper PMC1935004", "key": {"BLBlaI-NTD": {"target": "T1, BLBlaI-NTD (Bacillus licheniformis, UniProt P06555 1-82)", "T1 sequence": "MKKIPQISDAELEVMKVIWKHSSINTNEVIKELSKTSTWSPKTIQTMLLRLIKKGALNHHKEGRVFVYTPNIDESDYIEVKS", "experiment": "NMR titration"}, "SAMecI-NTD": {"target": "T2, SAMecI-NTD (Staphylococcus aureus, UniProt P68261 1-83)", "T2 sequence": "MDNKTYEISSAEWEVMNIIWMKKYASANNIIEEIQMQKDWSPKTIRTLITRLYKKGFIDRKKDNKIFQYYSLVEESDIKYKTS", "experiment": "NMR titration"}}, "data": [{"binder": "1/2OP1blaP (dsDNA) DNA 1: AAAGTATTACAT DNA 2: ATGTAATACTTT", "values": [{"measurement": "Kd", "setting": "BLBlaI-NTD", "result": "190 ± 50", "unit": "µM"}, {"measurement": "Kd", "setting": "SAMecI-NTD", "result": "860 ± 80", "unit": "µM"}]}]}
